# Laboratory results: publication PMC5737878 (Nucleic Acids Research, 2017)
# How the values were obtained:
# NMR titration = biological target: the molecule itself; experiment: NMR titration
# GR DBD = GR DBD (UniProt P04150 417-506); experiment: fluorescence polarization
binder,measurement,setting,value
"Glucocorticoid receptor DNA binding domain (GR DBD, residues 417-506), 15N-labelled (domain or fragment, UniProt P04150 417-506, looked up, 15N-labelled) PPKLCLVCSDEASGCHYGVLTCGSCKVFFKRAVEGQHNYLCAGRNDCIIDKIRRKNCPACRYRKCLQAGMNLEARKTKKKIKGIQQATTG",binding result,NMR titration,binds
IL1a TRE (FP) (dsDNA) DNA 1: GAAGAAGACTGACTCTCAGGCTTAAGC DNA 2: GCTTAAGCCTGAGAGTCAGTCTTCTTC,binding result,GR DBD,binds
VCAM1 TRE (FP) (dsDNA) DNA 1: TTCCGGCTGACTCATCAAGCG DNA 2: CGCTTGATGAGTCAGCCGGAA,binding result,GR DBD,binds
MMP13 TRE (FP) (dsDNA) DNA 1: ATAAGTGATGACTCACCATTGCA DNA 2: TGCAATGGTGAGTCATCACTTAT,binding result,GR DBD,binds
